# Source: US20160304565A1 (US Dept. of Health and Human Services, published 2016)
# B1: E. coli-produced, properly folded RSV G0-dTM (67-298) protein of the RSV-A2 strain, C-terminal His6 tag (other)
# chain: HKVTPTTAIIQDATSQIKNTTPTYLTQNPQLGISPSNPSEITSQITTILASTTPGVKSTLQSTTVKTKNTTTTQTQPSKPTTKQRQNKPPSKPNNDFHFEVFNFVPCSICSNNPTCWAICKRIPNKKPGKKTTTKPTKKPTLKTTKKDPKPQTTKSKEVPTTKPTEEPTINTTKTNIITTLLTSNTTGNPELTSQMETFHSTSSEGNPSPSQVSTTSEYPSQPSSPPNTPRQHHHHHH
# notes: also called REG; bacterially produced RSV-A2 G
# Target: the molecule itself
# Assay: gel filtration chromatography (self-association)
protein,measurement,value
B1,binding result,binds
